This passage reports binding signal results from paper PMC11417369, “DNA sequence and chromatin differentiate sequence-specific transcription factor binding in the human malaria parasite Plasmodium falciparum”.

Numbering of substitutions follows the chain as printed.

In this data set the target is AP2-I D3 (Plasmodium falciparum, UniProt Q8IJW6 910-1027). The data set is described as follows: gcPBM; about 25 ug protein; PBS, 1% milk, 0.2 mg/ml BSA, salmon testes DNA, 0.03% Triton X-100. As to conditions: tags: N-terminal GST (pGEX-4T-1), kept; label: surface-attached array probe.

B1: GTGCAC_site10615 (dsDNA)
DNA 1: ATTTTTTTTGTAAAAGTGCATATATATATATATATA
DNA 2: TATATATATATATATATGCACTTTTACAAAAAAAAT
With B1, the binding signal was 10.5 ln median PBM intensity, better of two orientations.

B2: GTGCAC_site10402 (dsDNA)
DNA 1: TTACACATGTATTTGGTGCATGTTGTTAACAAAATA
DNA 2: TATTTTGTTAACAACATGCACCAAATACATGTGTAA
As to B2, the binding signal was 9.49 ln median PBM intensity, better of two orientations.

B3: GTGCAC_site9648 (dsDNA)
DNA 1: ATAATTTCACAAATAGTGCAAAAATTAGTAAGAATA
DNA 2: TATTCTTACTAATTTTTGCACTATTTGTGAAATTAT
Turning to B3, the binding signal is 10.3 ln median PBM intensity, better of two orientations.

B4: GTGCAC_site10240 (dsDNA)
DNA 1: CTTTTAGAATAATCAGTGCAAAAAAAAAAAAAAAAA
DNA 2: TTTTTTTTTTTTTTTTTGCACTGATTATTCTAAAAG
Consider B4, for which the binding signal was 10.1 ln median PBM intensity, better of two orientations.

B5: GTGCAC_site10217 (dsDNA)
DNA 1: ATATATTTTTGTAGTGTGCACGTTTATATGGTGAAA
DNA 2: TTTCACCATATAAACGTGCACACTACAAAAATATAT
As to B5, the binding signal is 10.5 ln median PBM intensity, better of two orientations.

B6: GTGCAC_site10324 (dsDNA)
DNA 1: TTGTTTTATTATTCGATGCACTACAGAAATATATTC
DNA 2: GAATATATTTCTGTAGTGCATCGAATAATAAAACAA
B6: the binding signal was 9.21 ln median PBM intensity, better of two orientations.

B7: GTGCAC_site10115 (dsDNA)
DNA 1: TTTGTTTGTAAAATGTTGCACTTTCTTTTGCTGATA
DNA 2: TATCAGCAAAAGAAAGTGCAACATTTTACAAACAAA
As to B7, the binding signal is 9.33 ln median PBM intensity, better of two orientations.

B8: GTGCAC_site10497 (dsDNA)
DNA 1: AAAAAAAAAAAATGTGTGCACATTATTTCAACTTAA
DNA 2: TTAAGTTGAAATAATGTGCACACATTTTTTTTTTTT
B8: the binding signal is 9.36 ln median PBM intensity, better of two orientations.

B9: GTGCAC_site9816 (dsDNA)
DNA 1: AAGACATTTTTTAAGGTGCTTTGGAAAAAGGAGTAT
DNA 2: ATACTCCTTTTTCCAAAGCACCTTAAAAAATGTCTT
As to B9, the binding signal is 9.5 ln median PBM intensity, better of two orientations.

B10: GTGCAC_site10398 (dsDNA)
DNA 1: AAATACTTATTCGTGGTGCAACAATTTTAAAAATTA
DNA 2: TAATTTTTAAAATTGTTGCACCACGAATAAGTATTT
As for B10, the binding signal was 10.4 ln median PBM intensity, better of two orientations.

B11: GTGCAC_site9756 (dsDNA)
DNA 1: TACTTATTTAAAATAGTGCATGAATAGAAGATATAT
DNA 2: ATATATCTTCTATTCATGCACTATTTTAAATAAGTA
For B11, the binding signal was 9.47 ln median PBM intensity, better of two orientations.

B12: GTGCAC_site9494 (dsDNA)
DNA 1: TTGTTTTTAATATCGGTGCAATGGAAAGAAAAGAAG
DNA 2: CTTCTTTTCTTTCCATTGCACCGATATTAAAAACAA
B12: the binding signal was 10.2 ln median PBM intensity, better of two orientations.

B13: GTGCAC_site10469 (dsDNA)
DNA 1: ATTTTCACCTGAACGGTGCATATTTAATTTTAGGTT
DNA 2: AACCTAAAATTAAATATGCACCGTTCAGGTGAAAAT
As for B13, the binding signal is 10 ln median PBM intensity, better of two orientations.

B14: GTGCAC_site9779 (dsDNA)
DNA 1: TTTTGTTATAATAAAGTGCATTTAGTCGGGTTACAA
DNA 2: TTGTAACCCGACTAAATGCACTTTATTATAACAAAA
With B14, the binding signal is 10.4 ln median PBM intensity, better of two orientations.

B15: GTGCAC_site9563 (dsDNA)
DNA 1: AAAATAATCTTTTGATTGCACTGTTACATTTTTTCT
DNA 2: AGAAAAAATGTAACAGTGCAATCAAAAGATTATTTT
With B15, the binding signal was 9.41 ln median PBM intensity, better of two orientations.

B16: GTGCAC_site10309 (dsDNA)
DNA 1: GTTAATTTTTGTATAGTGCAAAAATATAATAGTATG
DNA 2: CATACTATTATATTTTTGCACTATACAAAAATTAAC
Regarding B16, the binding signal was 10.6 ln median PBM intensity, better of two orientations.

B17: GTGCAC_site10026 (dsDNA)
DNA 1: ATATAAGTATTTTGAATGCACTTTCTTTTTTTTTTT
DNA 2: AAAAAAAAAAAGAAAGTGCATTCAAAATACTTATAT
Consider B17, for which the binding signal is 10.5 ln median PBM intensity, better of two orientations.

B18: GTGCAC_site10708 (dsDNA)
DNA 1: TTCTAAAATTATATAGTGCAATTATATTAATTTTTC
DNA 2: GAAAAATTAATATAATTGCACTATATAATTTTAGAA
In the case of B18, the binding signal was 9.54 ln median PBM intensity, better of two orientations.

B19: GTGCAC_site10268 (dsDNA)
DNA 1: TTTTTTGTTATTGGCGTGCACATATCCATTTATAGT
DNA 2: ACTATAAATGGATATGTGCACGCCAATAACAAAAAA
On to B19, for which the binding signal was 10.4 ln median PBM intensity, better of two orientations.

B20: GTGCAC_site9741 (dsDNA)
DNA 1: ATTCATATTTTTCAAGTGCGCATTAAAATATTAACC
DNA 2: GGTTAATATTTTAATGCGCACTTGAAAAATATGAAT
Turning to B20, the binding signal is 9.34 ln median PBM intensity, better of two orientations.

B21: GTGCAC_site9681 (dsDNA)
DNA 1: ACTACGAATGGTAGAGTGCAGTCTGGAGAAAAGTAC
DNA 2: GTACTTTTCTCCAGACTGCACTCTACCATTCGTAGT
Take B21: the binding signal was 9.19 ln median PBM intensity, better of two orientations.

B22: GTGCAC_site9804 (dsDNA)
DNA 1: TCAAAAGAATAATTGGTGCAAATTATATAATATAAT
DNA 2: ATTATATTATATAATTTGCACCAATTATTCTTTTGA
With B22, the binding signal is 10.8 ln median PBM intensity, better of two orientations.

B23: GTGCAC_site10675 (dsDNA)
DNA 1: GTAGTTATATTAAGGGTGCTTAATTAGATTAAACAA
DNA 2: TTGTTTAATCTAATTAAGCACCCTTAATATAACTAC
Turning to B23, the binding signal is 10.8 ln median PBM intensity, better of two orientations.

B24: GTGCAC_site9938 (dsDNA)
DNA 1: GAATTATAAATTATAGTGCATAAAATTATGGCATAA
DNA 2: TTATGCCATAATTTTATGCACTATAATTTATAATTC
B24: the binding signal was 10.8 ln median PBM intensity, better of two orientations.

B25: GTGCAC_site9543 (dsDNA)
DNA 1: CAATATTTGTTATGGGTGCAAACCGCATATATATAA
DNA 2: TTATATATATGCGGTTTGCACCCATAACAAATATTG
Consider B25, for which the binding signal is 10.3 ln median PBM intensity, better of two orientations.

B26: GTGCAC_site9428 (dsDNA)
DNA 1: B25 DNA 1 with C1A, T6G, G25A
DNA 2: B25 DNA 2 with C12T, A31C, G36T
B26: the binding signal was 10.2 ln median PBM intensity, better of two orientations.

B27: GTGCAC_site10565 (dsDNA)
DNA 1: AAAAAAGAACGCATAGTGCATATCTAAAAGATTTTT
DNA 2: AAAAATCTTTTAGATATGCACTATGCGTTCTTTTTT
Consider B27, for which the binding signal was 9.16 ln median PBM intensity, better of two orientations.

B28: GTGCAC_site9414 (dsDNA)
DNA 1: TTAAATATTTTTAGAGTGCATGTAATAAAAATATAA
DNA 2: TTATATTTTTATTACATGCACTCTAAAAATATTTAA
Turning to B28, the binding signal is 9.27 ln median PBM intensity, better of two orientations.

B29: GTGCAC_site10715 (dsDNA)
DNA 1: TTTTTGTAACCGATTCTGCACTGAGAAGCACATATA
DNA 2: TATATGTGCTTCTCAGTGCAGAATCGGTTACAAAAA
With B29, the binding signal was 9.57 ln median PBM intensity, better of two orientations.

B30: GTGCAC_site9508 (dsDNA)
DNA 1: TAATAAAAAGTTGAGGTGCATATAGAGTTCTTCTTT
DNA 2: AAAGAAGAACTCTATATGCACCTCAACTTTTTATTA
On to B30, for which the binding signal is 10.5 ln median PBM intensity, better of two orientations.

B31: GTGCAC_site9423 (dsDNA)
DNA 1: ACACATACACATTAGGTGCATATATTTCAATATTAC
DNA 2: GTAATATTGAAATATATGCACCTAATGTGTATGTGT
In the case of B31, the binding signal is 10.6 ln median PBM intensity, better of two orientations.

B32: GTGCAC_site9514 (dsDNA)
DNA 1: GTAGGATTTTCTTTTGTGCGCAATATAAAAAGAAAA
DNA 2: TTTTCTTTTTATATTGCGCACAAAAGAAAATCCTAC
As to B32, the binding signal is 9.23 ln median PBM intensity, better of two orientations.

B33: GTGCAC_site10006 (dsDNA)
DNA 1: ATATATTAACAAAAGGTGCTTTTGGCAAAGTATAAT
DNA 2: ATTATACTTTGCCAAAAGCACCTTTTGTTAATATAT
Consider B33, for which the binding signal was 9.45 ln median PBM intensity, better of two orientations.

B34: GTGCAC_site9560 (dsDNA)
DNA 1: ATACATCGTATATAAGTGCATATTAAGGTCTTAAGA
DNA 2: TCTTAAGACCTTAATATGCACTTATATACGATGTAT
On to B34, for which the binding signal was 9.59 ln median PBM intensity, better of two orientations.

B35: GTGCAC_site10638 (dsDNA)
DNA 1: TAATATAATGATGCAGTGCATATGTTAAAATGAAAA
DNA 2: TTTTCATTTTAACATATGCACTGCATCATTATATTA
On to B35, for which the binding signal is 9.15 ln median PBM intensity, better of two orientations.

B36: GTGCAC_site9605 (dsDNA)
DNA 1: AAGGGAAAAATATGGTTGCACTAAAAATATGTAATT
DNA 2: AATTACATATTTTTAGTGCAACCATATTTTTCCCTT
For B36, the binding signal is 9.25 ln median PBM intensity, better of two orientations.

B37: GTGCAC_site9782 (dsDNA)
DNA 1: AAAATATAAATTCATGTGCACATATATATTTTGTTA
DNA 2: TAACAAAATATATATGTGCACATGAATTTATATTTT
For B37, the binding signal is 9.03 ln median PBM intensity, better of two orientations.

B38: GTGCAC_site10317 (dsDNA)
DNA 1: TTATATTTTCTCCGCGTGCACATATGTATACTATAC
DNA 2: GTATAGTATACATATGTGCACGCGGAGAAAATATAA
Regarding B38, the binding signal was 10.2 ln median PBM intensity, better of two orientations.

B39: GTGCAC_site9626 (dsDNA)
DNA 1: TTTATTAATAAAAAGGTGCAATCAGGAAAAATTATC
DNA 2: GATAATTTTTCCTGATTGCACCTTTTTATTAATAAA
With B39, the binding signal was 10.7 ln median PBM intensity, better of two orientations.

B40: GTGCAC_site10474 (dsDNA)
DNA 1: TTTTTTGTTACAACAGTGCAAAAAAACCTTAATGTT
DNA 2: AACATTAAGGTTTTTTTGCACTGTTGTAACAAAAAA
As to B40, the binding signal was 10.2 ln median PBM intensity, better of two orientations.

B41: GTGCAC_site10220 (dsDNA)
DNA 1: CATATAAAAAATATGGTGCAGTTTTTTTTTTTTTTT
DNA 2: AAAAAAAAAAAAAAACTGCACCATATTTTTTATATG
In the case of B41, the binding signal is 10.3 ln median PBM intensity, better of two orientations.

B42: GTGCAC_site9467 (dsDNA)
DNA 1: AAATAATGAAACAAAGTGCATAAAAATATACATATA
DNA 2: TATATGTATATTTTTATGCACTTTGTTTCATTATTT
Regarding B42, the binding signal was 10.6 ln median PBM intensity, better of two orientations.
